Results published in paper PMC7283332 (2020).

T1: Fc-wtNKG2D (human, UniProt P26718 78-216)
T1 chain: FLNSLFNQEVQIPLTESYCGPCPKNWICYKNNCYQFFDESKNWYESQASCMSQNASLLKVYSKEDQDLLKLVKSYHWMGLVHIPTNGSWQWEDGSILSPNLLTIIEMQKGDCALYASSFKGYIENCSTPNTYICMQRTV

B1: Fc-iNKG2D.YA (Fc fusion)
chain: FLNSLFNQEVQIPLTESYCGPCPKNWICYKNNCYQFFDESKNWYESQASCMSQNASLLKVYSKEDQDLLKLVKSAHWMGLVHIPTNGSWQWEDGSILSPNLLTIIEMQKGDCALYASSFKGYIENCSTPNTYICMQRTV
modifications: biotinylated only in the ELISA on coated ligand-Fc proteins

Assays:
Experiment in all cases: BLI
[1] = target: T1, Fc-wtNKG2D
[2] = target: B1
[3] = target: ULBP2.S3 (U2S3), monomeric α1α2 domain variant (human, UniProt Q9BZM5)

Binder | Kd [1] | Kd [2] | Kd [3]
ULBP2.R81W, monomeric α1α2 domain (domain or fragment) DPHSLCYDITVIPKFRPGPRWCAVQGQVDEKTFLHYDCGNKTVTPVSPLGKKLNVTTAWKAQNPVLREVVDILTEQLWDIQLENYTPKEPLTLQARMSCEQKAEGHSSGSWQFSFDGQIFLLFDSEKRMWTTVHPGARKMKEKWENDKVVAMSFHYFSMGDCIGWLEDFLMGMDSTLEPSAGAP | 8 nM | 3600 nM | –
ULBP2 α1α2 domain, C-terminal 6×-His (domain or fragment) DPHSLCYDITVIPKFRPGPRWCAVQGQVDEKTFLHYDCGNKTVTPVSPLGKKLNVTTAWKAQNPVLREVVDILTEQLRDIQLENYTPKEPLTLQARMSCEQKAEGHSSGSWQFSFDGQIFLLFDSEKRMWTTVHPGARKMKEKWENDKVVAMSFHYFSMGDCIGWLEDFLMGMDSTLEPSAGAP | 350 nM | – | –
B1 | – | – | 28 nM
